T1: human SLC34A2 (human, UniProt O95436 1-690)
T1 construct: whole, on cells; also called human solute carrier 34 A2; NaPi2b
T1 sequence (looked up): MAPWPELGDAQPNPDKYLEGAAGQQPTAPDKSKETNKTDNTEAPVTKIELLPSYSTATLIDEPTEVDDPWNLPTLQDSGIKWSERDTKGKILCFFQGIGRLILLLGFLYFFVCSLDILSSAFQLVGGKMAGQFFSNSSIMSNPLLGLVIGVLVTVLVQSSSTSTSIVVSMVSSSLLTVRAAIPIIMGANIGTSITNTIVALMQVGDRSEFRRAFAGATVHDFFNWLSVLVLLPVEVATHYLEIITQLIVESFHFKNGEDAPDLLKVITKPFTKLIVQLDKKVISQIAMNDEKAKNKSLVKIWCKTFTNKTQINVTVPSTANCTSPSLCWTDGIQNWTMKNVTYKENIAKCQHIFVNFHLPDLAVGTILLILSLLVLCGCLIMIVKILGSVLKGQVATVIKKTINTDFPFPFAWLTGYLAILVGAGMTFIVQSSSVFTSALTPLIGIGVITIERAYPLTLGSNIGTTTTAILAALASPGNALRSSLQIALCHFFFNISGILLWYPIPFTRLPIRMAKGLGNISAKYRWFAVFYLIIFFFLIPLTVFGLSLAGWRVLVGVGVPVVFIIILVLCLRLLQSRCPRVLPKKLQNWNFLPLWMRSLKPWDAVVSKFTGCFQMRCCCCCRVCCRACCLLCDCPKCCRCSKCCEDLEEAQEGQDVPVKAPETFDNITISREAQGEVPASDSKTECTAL


Biological target: T1, human SLC34A2
Assay: FACS, OVCAR3 cells

Binder	EC50	Top (MFI)
91C9F1.p1.z1 hIgG1 (antibody, V domains shown, humanized hIgG1) VH: QVQLVQSGAEVKKPGSSVKVSCKASGFFFTEYIIHWVRQAPGQGLEWMGGIIPNNDVTNYKQNFRGRVTITADESTSTAYMELSSLRSEDTAVYYCARWRNAYYSAMDSWGQGTTVTVSS VL: DIQMTQSPSSLSASVGDRVTITCTASQDVGTAVAWYQQKPGKVPKLLIYWASTRHTGVPSRFSGSGSGTDFTLTISSLQPEDVATYYCQQYRTSPLTFGGGTKVEIK	3.78 nM	34200 MFI
91C9F1.p1.z5 hIgG1 (antibody, V domains shown, humanized hIgG1) VH: QVQLVQSGAEVKKPGSSVKVSCKTSGFFFTEYIIHWVRQAPGQGLEWIGGIIPNNDVTNYKQNFRGRVTLTADKSTSTAYMELSSLRSEDTAVYYCARWRNAYYSAMDSWGQGTTVTVSS VL: DIQMTQSPSSLSASVGDRVTITCTASQDVGTAVAWYQQKPGKVPKLLIYWASTRHTGVPSRFSGSGSGTDFTLTISSLQPEDVATYYCQQYRTSPLTFGGGTKVEIK	2.95 nM	36900 MFI
91C9F1.p1.z9 hIgG1 (antibody, V domains shown, humanized hIgG1) VH: QVQLVQSGAEVVKPGSSVKVSCKTSGFFFTEYIIHWVRQSPGQGLEWIGGIIPNNDVTNYKQNFRGRATLTADKSTSTAYMELSSLRSEDTAVYYCARWRNAYYSAMDSWGQGTTVTVSS VL: DIQMTQSPSSLSASVGDRVTITCTASQDVGTAVAWYQQKPGKVPKLLIYWASTRHTGVPSRFSGSGSGTDFTLTISSLQPEDVATYYCQQYRTSPLTFGGGTKVEIK	2.72 nM	37000 MFI
91C9F1.p1.z8 hIgG1 (antibody, V domains shown, humanized hIgG1) VH: QVQLVQSGAEVKKPGSSVKVSCKTSGFFFTEYIIHWVRQAPGQGLEWIGGIIPNNDVTNYKQNFRGRVTLTADKSTSTAYMELSSLRSEDTAVYYCARWRNAYYSAMDSWGQGTTVTVSS VL: DIVVTQSPSSLSTSVGDRVTITCTASQDVGTAVAWYQQKPGKSPKLLIYWASTRHTGVPERFTGSGSGTDFTLTISSVQPEDVATYFCQQYRTSPLTFGVGTKLELK	2.13 nM	35700 MFI
